According to patent US20250197488A1 (MABWELL SHANGHAI BIOSCIENCE, published 2025):
Numbering of substitutions follows the chain as printed.

T1: IL-11 (Cat. 12225-HNCE, Sino Biological Inc.) (UniProt P20809 22-199, limits assumed)
T1 sequence (looked up): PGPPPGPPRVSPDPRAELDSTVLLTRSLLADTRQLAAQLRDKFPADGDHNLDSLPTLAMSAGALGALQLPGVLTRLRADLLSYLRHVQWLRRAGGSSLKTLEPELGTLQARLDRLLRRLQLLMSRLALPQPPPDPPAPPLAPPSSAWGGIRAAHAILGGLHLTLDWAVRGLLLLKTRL

T2: human IL-11 (AAH12506.1, Pro22-Leu199) (human, UniProt P20809 22-199)
T2 construct: The range Pro22-Leu199 counts on AAH12506.1; The Octet runs say only 'human IL-11'; also called hIL-11
T2 chain: T1 sequence (looked up) with H154L

B1: hz8C8-VHm1 + hz8C8-VL (antibody, human IgG1, kappa, V domains shown)
VH: EVQLVESGGGLVQPGGSLRLSCAASGFTFSSFGMHWVRQAPGKGLEWVAYITPGSNTIYYADTVKGRFTISRDNAKNSLYLQMNSLRAEDTAVYYCAREYYSYDEGFAYWGQGTLVTVSS
VL: EIVLTQSPATLSLSPGERATLSCSVSSSISSNYLHWYQQKPGQAPRLLIYRTSNLASGIPARFSGSGSGTDFTLTISSLEPEDFAVYYCQQGVDVPFTFGQGTKLEIKR
notes: human IgG1 constant regions
B2: hz8C8-VHm1 + hz8C8-VLm1 (antibody, human IgG1, kappa, V domains shown)
VH: B1 VH
VL: B1 VL with S30P
notes: human IgG1 constant regions
B3: hz8C8-VHm1 + hz8C8-VLm2 (antibody, human IgG1, kappa, V domains shown)
VH: B1 VH
VL: B1 VL with N32K
notes: human IgG1 constant regions
B4: hz8C8-VHm1 + hz8C8-VLm3 (antibody, human IgG1, kappa, V domains shown)
VH: B1 VH
VL: B1 VL with S28L
notes: human IgG1 constant regions
B5: hz8C8-VHm1 + hz8C8-VLm4 (antibody, human IgG1, kappa, V domains shown)
VH: B1 VH
VL: B1 VL with S27D, S28L
notes: human IgG1 constant regions
B6: hz8C8-VHm1 + hz8C8-VLm5 (antibody, human IgG1, kappa, V domains shown)
VH: B1 VH
VL: B1 VL with S27E, S28L, I29L, S31T
notes: human IgG1 constant regions
B7: hz8C8-VHm1 + hz8C8-VLm6 (antibody, human IgG1, kappa, V domains shown)
VH: B1 VH
VL: B1 VL with S28L, S30P, N32K
notes: human IgG1 constant regions
B8: hz8C8-VHm1 + hz8C8-VLm7 (antibody, human IgG1, kappa, V domains shown)
VH: B1 VH
VL: B1 VL with S27D, S28L, S30P, N32Q
notes: human IgG1 constant regions; also called hz8C8m7
B9: hz8C8-VHm1 + hz8C8-VLm7-m1 (antibody, human IgG1, kappa, V domains shown)
VH: B1 VH
VL: B1 VL with S27D, S28L, S30P, N32Q, T52A
notes: human IgG1 constant regions
B10: hz8C8-VHm1 + hz8C8-VLm7-m2 (antibody, human IgG1, kappa, V domains shown)
VH: B1 VH
VL: B1 VL with S27D, S28L, S30P, N32Q, R51D, T52A
notes: human IgG1 constant regions
B11: hz8C8-VHm1 + hz8C8-VLm7-m3 (antibody, human IgG1, kappa, V domains shown)
VH: B1 VH
VL: B1 VL with S27D, S28L, S30P, N32Q, R51G, T52A
notes: human IgG1 constant regions
B12: hz18A10-VHm11 + hz18A10-VLm19 (antibody, V domains shown)
VH: EVQLVQSGAEVKKPGASVKVSCKASGYTFTHYNMDWVRQAPGQGLEWMGTIYPGNGDTSYNQKFKGRVTMTRDTSTSTVYMELSSLRSEDTAVYYCARGDLYALDYWGQGTLVTVSS
VL: DIQMTQSPSSLSASVGDRVTITCKASQSVYRDVAWYQQKPGKAPKLLIYSASNRYTGVPSRFSGSGSGTDFTFTISSLQPEDIATYYCQHDYSSPYTFGQGTKLEIK
notes: Constant regions not restated for this antibody
B13: hz18A10-VHm12 + hz18A10-VLm19 (antibody, V domains shown)
VH: B12 VH with N33D
VL: B12 VL
notes: as for B12
B14: hz18A10-VHm13 + hz18A10-VLm19 (antibody, V domains shown)
VH: B12 VH with N33E
VL: B12 VL
notes: as for B12
B15: hz18A10-VHm14 + hz18A10-VLm19 (antibody, V domains shown)
VH: B12 VH with N33Q
VL: B12 VL
notes: as for B12
B16: hz18A10-VHm15 + hz18A10-VLm19 (antibody, V domains shown)
VH: B12 VH with N33S
VL: B12 VL
notes: as for B12
B17: hz18A10-VHm16 + hz18A10-VLm19 (antibody, V domains shown)
VH: B12 VH with N33D, G56A
VL: B12 VL
notes: as for B12
B18: hz18A10-VHm17 + hz18A10-VLm19 (antibody, V domains shown)
VH: B12 VH with N33D, N55E
VL: B12 VL
notes: as for B12
B19: hz18A10-VHm18 + hz18A10-VLm19 (antibody, V domains shown)
VH: B12 VH with N55E
VL: B12 VL
notes: as for B12
B20: hz18A10-VHm20 + hz18A10-VLm19 (antibody, V domains shown)
VH: B12 VH with N55Q
VL: B12 VL
notes: as for B12

biological target: T1, IL-11 (Cat. 12225-HNCE, Sino Biological …); assay: cell-based or functional assay

Binder	Blocking activity (IC50), STAT3-luc reporter [µg/mL]
B1	2.13
B2	0.804
B3	0.038
B4	0.125
B5	0.098
B6	0.1
B7	0.076
B8	0.017
B9	0.068
B10	0.024
B11	0.017
B12	0.112
B13	0.011
B14	0.338
B15	1.03
B16	0.511
B17	0.034
B18	0.013
B19	0.79
B20	0.061

biological target: T1, IL-11 (Cat. 12225-HNCE, Sino Biological …); assay: competition ELISA, IL-11/IL-11Rα/GP130 complex
Description: The activity of the recombinant murine anti-IL-11 antibodies for blocking the formation of IL-11/IL-11Rα/GP130 complex was analyzed via competition ELISA. IL-11Rα-His (NP_004503.1, Met1-Val363, C-terminus-6-His Tag) was firstly added into ELISA plates to be coated overnight. Next day, samples were prepared as follows. […] After co-incubating and washing, an HRP conjugated anti-human Fc secondary antibody was added to develop the color which was then detected.
(§1) Then, light and heavy chain expression vectors for preparing mutant antibodies were constructed according to the method for preparing the recombinant antibodies provided in Example 4, using the mutant sequences shown in Table 3 which accordingly were linked with human IgG1 constant regions (SEQ ID NO. 13, and SEQ ID NO.14). Subsequently, the light chain and the heavy chain were reasonably matched and co-transfected into eukaryotic cells for transient expression, and then recombination protein samples of the mutant antibodies were obtained through affinity purification. The samples obtained were tested for affinity on Fortebio Octet, according to the method for measuring affinity provided in Example 1. Further, using the protocol provided in Example 3, hz8C8 and its affinity matured mutants were analyzed for their activity for blocking the formation of IL-11/IL-11Rα/GP130 complex.

Binder	IC50 [µg/mL]
B1	2.09
B2	1.24
B3	1.14
B4	0.943
B5	0.846
B6	0.838
B7	1.01
B8	0.85
B9	0.58
B10	0.74
B11	0.73

Biological target: T2, human IL-11 (AAH12506.1, Pro22-Leu199)
Assay: BLI (Octet), antibody captured, human IL-11 in solution
Description: The affinity of the murine antibodies purified from the hybridoma supernatants was determined using an Octet QKe System instrument from Fortebio Inc. with an anti-mouse IgG Fc Capture biosensor to capture the Fc fragments of the antibodies, for which an anti-IL-11 antibody named “3C6-mFc” recombinantly expressed was used at the same concentration as a positive control. Specifically, a hybridoma supernatant was diluted with HBS-EP+ buffer (GE), and was allowed to pass through the surface of AMC probes (Cat: 18-5088, PALL), and so the antibody in the hybridoma supernatant was captured on the surface of the probes; then, human IL-11 diluted in the HBS-EP+ buffer (300 nM) was used as a mobile phase to react with the antibody captured on the surface of the probes. Both the binding and the dissociating were conducted for 300 seconds. When the experiment was finished, data from which response values of blank controls had been deducted was fitted using a 1:1 Langmuir binding model by software, and then kinetic constants for antigen-antibody binding were calculated. Binding signals were detected on the Octet QKe System instrument with Hy5C2, Hy8C8, Hy16B5, Hy18A10, and Hy18H10.
The affinity of hz18A10 and hz8C8 was determined according to the method provided in Example 1 using AHC bioprobes for capturing human Fc fragment instead, with other conditions unchanged. A recombinantly expressed anti-IL-11 antibody 3C6-hFc was used at the same concentration as a positive control.
as §1, with “1.” for “1. Further, using the protocol provided in Example 3, hz8C8 and its affinity matured mutants were analyzed for their activity for blocking the formation of IL-11/IL-11Rα/GP130 complex.”

Binder	Kd [nM]	koff [s⁻¹]	kon [M⁻¹ s⁻¹]
B1	0.613	0.000472	770000
B2	0.178	0.000125	705000
B3	0.388	0.000229	590000
B4	0.636	0.000496	780000
B5	0.161	0.000141	874000
B6	0.479	0.000406	848000
B7	0.0412	2.23e-05	543000
B8	0.00429	3.52e-06	822000
B9	0.13	0.000136	1.05e+06
B10	0.0347	3.7e-05	1.07e+06
B11	0.0795	8.99e-05	1.13e+06

Biological target: T2, human IL-11 (AAH12506.1, Pro22-Leu199)
Assay: BLI (Octet), antibody captured, human IL-11 in solution
Remark: another data set of the same source
Outline: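 Kd, kon and koff were derived by fitting blank-subtracted bio-layer interferometry curves to a 1:1 Langmuir binding model. On a Fortebio Octet QKe System, antibodies diluted in HBS-EP+ buffer were captured on AMC or AHC biosensors and exposed to 300 nM human IL-11 for 300 seconds of association and 300 seconds of dissociation.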

Binder	Kd [nM]	koff [s⁻¹]	kon [M⁻¹ s⁻¹]
B12	0.138	0.000119	862000
B13	0.185	0.000173	934000
B14	0.203	0.000148	729000
B15	0.678	0.000485	716000
B16	0.346	0.000263	760000
B17	0.0956	0.00012	1.26e+06
B18	0.00708	8.23e-06	1.16e+06
B19	0.313	0.000354	1.13e+06
B20	0.22	0.000227	1.03e+06
